Reference: article PMC11653366 (2024)

T1: F*-PLLP
T1 chain: LASRPLPLLP

B1: AblSrc SH3 SH3 (protein)
chain: PSENDPNLFVALYDFESRTETTLSITKGEKLRVLGYNTEGDWCEAQTKNGQGWVPSNYITPVNSLEK
B2: F*-p40 (peptide)
chain: APTYSPPPPP
B3: SrcAbl SH3 84-145 (protein)
chain: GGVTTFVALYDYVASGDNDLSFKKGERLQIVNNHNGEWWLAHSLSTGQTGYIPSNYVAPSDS

Tests used:
Assay in all cases: fluorescence anisotropy
F*-p40 = target: B2
F*-PLLP = target: T1, F*-PLLP
Src SH3 84-145 = Src SH3 84-145 (Homo sapiens, UniProt P12931)

Kd (F*-p40) [µM] | Kd (F*-PLLP) [µM] | Kd (Src SH3 84-145) [µM] | Binder
210 | > 1000 |  | B1
 |  | > 1000 | B2
130 | 140 |  | B3
